Molecular target: T1, proliferating cell nuclear antigen (PCNA) (UniProt P12004 1-261)
T1 construct: Used both for endogenous PCNA of HeLa cell extracts (co-IP, cross-linking) and for the untagged 'PCNA' used as probe in the dot blot; also called endogenous PCNA
Test: co-IP with anti-GFP antibodies from stably expressing cells, anti-PCNA western blot
Procedure: An in-house affinity purified rabbit polyclonal antibody raised against GFP protein, which also recognises EYFP and ECFP proteins, was covalently linked to protein-A paramagnetic beads (Dynal®) according to procedure from New England Biolabs® Inc (from now on called α-GFP beads). Each fraction was incubated with α-GFP beads (10 μl) during constant rotation at 4° C. over night (IP). After IP, the beads were washed 4 times with 200 μl 10 mM Tris-HCl, 50 mM KCl (pH 7.5), with 5 min incubation on ice in between. The beads were then resuspended in NuPAGE ® (Invitrogen) loading buffer and 1 mM DTT, heated, and separated on 10% or 4-12% Bis-Tris-HCl (NuPAGE®) gels and transferred to PVDF membranes (Imrnobilon®, Millipore). The membranes were blocked for 1 h in 5% low fat dry milk in PBST (PBS with 0.1% Tween® 20). The primary antibodies, α-PCNA (PC10, Santa Cruz biotechnology Inc.) and α-GFP were diluted in 1% dry milk in PBST and incubated for 1 h, followed by 1 h incubation with secondary antibodies, Polyclonal Rabbit Anti-mouse IgG/HRP and Polyclonal Swine Anti-rabbit IgG/HRP, respectively (DakoCytomation, Denmark). The membranes were treated with chemiluminescence reagent (SuperSignal® West Femto Maximum, PIERCE), and the proteins visualised in Kodak Image Station 2000R. […]

T1 sequence (P12004 whole entry): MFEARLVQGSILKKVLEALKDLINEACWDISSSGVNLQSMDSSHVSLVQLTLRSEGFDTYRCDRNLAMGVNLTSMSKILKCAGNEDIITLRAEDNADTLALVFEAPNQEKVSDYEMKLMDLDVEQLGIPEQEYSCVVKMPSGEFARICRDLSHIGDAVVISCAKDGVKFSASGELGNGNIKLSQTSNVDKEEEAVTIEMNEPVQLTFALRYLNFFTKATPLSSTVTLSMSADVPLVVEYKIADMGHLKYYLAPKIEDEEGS

- binding result: no binding
B1: hABH211-261-EYFP (other, human, UniProt Q6NS38 11-261, looked up)
chain: GGLLRKQEEQEPTGEEPAVLGGDKESTRKRPRREAPGNGGHSAGPSWRHIRAEGLDCSYTVLFGKAEADEIFQELEKEVEYFTGALARVQVFGKWHSVPRKQATYGDAGLTYTFSGLTLSPKPWIPVLERIRDHVSGVTGQTFNFVLINRYKDGCDHIGEHRDDERELAPGSPIASVSFGACRDFVFRHKDSRGKSPSRRVAVVRLPLAHGSLLMMNHPTNTHWYHSLPVRKKVLAPRVNLTFRKILLTKK
notes: not shown: C-terminal EYFP tag (pEYFP-N1)

Reference: patent publication US20110020437A1 (APIM THERAPEUTICS, published 2011)
